The values below come from PMC11094138, “The NTE domain of PTENα/β promotes cancer progression by interacting with WDR5 via its SSSRRSS motif” (Cell Death & Disease, 2024).

Test [1] deals with T1, WDR5^22–334 (human, UniProt P61964 22-334). Nature of the test: ITC; WDR5 (50 µM) in the cell, peptide or protein (750 µM) in the syringe, 20 injections; 25 °C; 20 mM Tris-HCl pH 7.5, 150 mM NaCl; single-site model; iTC-200. As to conditions: both partners purified.
The target of test [2] is T1, WDR5^22–334. Nature of the test: ITC; competitive: PTENα-NTE^116–148 or PTENα-NTE^1–173 titrated into a 1:1 molar mixture of WDR5^22–334 and H3 1–15; 25 °C; 20 mM Tris-HCl pH 7.5, 150 mM NaCl. As to conditions: both partners purified.

B1: MLL1 WIN motif MLL1^3762–3772 (peptide)
peptide: GSARAEVHLRK
notes: source: lyophilized peptide (Shanghai Apeptide or GL Biochem)
Turning to B1, the binding result with WDR5^22–334 [1] is “binds”.

B2: MLL1^3762–3772_A3764R (peptide)
peptide: GSRRAEVHLRK
notes: as for B1
Take B2: the binding result in the test with WDR5^22–334 [1] is reported as “binds”.

B3: PTENα-NTE^116–148 peptide (peptide)
peptide: SSRRSSHYPAAVQSQAAAERGASATAKSRAISI
notes: PTENα (PTEN-L), the N-terminally extended variant of human PTEN (576 residues); residues 116–148 of its N-terminal extension; also called synthetic PTENα-NTE^116–148 peptide; source: synthetic peptide
As to B3, in the test with WDR5^22–334 [1], binding was characterised by a dissociation constant (Kd) of 3.8 µM. Further, the “Kd against a 1:1 mixture of WDR5^22–334 and H3 1–15” value with WDR5^22–334 [2] stood at 32 ± 3 µM.
